Assay results taken from patent US20090196872A1.

Legend:
[1] = target: M2 peptide (extracellular 23-amino-acid peptide of influenza virus matrix M2 protein) (influenza A virus); assay: peptide ELISA, antibody at 10 ug/ml
[2] = target: M2 truncated peptide CM12 (influenza A virus); assay: peptide ELISA, antibody at 10 ug/ml
[3] = target: M2 truncated peptide CM13 (influenza A virus); assay: peptide ELISA, antibody at 10 ug/ml
[4] = target: M2 truncated peptide CM14 (influenza A virus); assay: peptide ELISA, antibody at 10 ug/ml
[5] = target: M2 truncated peptide CM15 (influenza A virus); assay: peptide ELISA, antibody at 10 ug/ml
[6] = target: M2 truncated peptide CM16 (influenza A virus); assay: peptide ELISA, antibody at 10 ug/ml
[7] = target: M2 truncated peptide CM17 (influenza A virus); assay: peptide ELISA, antibody at 10 ug/ml
[8] = target: M2 truncated peptide M12 (influenza A virus); assay: peptide ELISA, antibody at 10 ug/ml
[9] = target: M2 truncated peptide M15 (influenza A virus); assay: peptide ELISA, antibody at 10 ug/ml
[10] = target: M2 truncated peptide M16 (influenza A virus); assay: peptide ELISA, antibody at 10 ug/ml
[11] = target: M2 truncated peptide NM10 (influenza A virus); assay: peptide ELISA, antibody at 10 ug/ml
[12] = target: M2 truncated peptide NM11 (influenza A virus); assay: peptide ELISA, antibody at 10 ug/ml
[13] = target: M2 truncated peptide NM12 (N-terminal 12-amino acid peptide) (influenza A virus); assay: peptide ELISA, antibody at 10 ug/ml
[14] = target: M2 truncated peptide NM13 (influenza A virus); assay: peptide ELISA, antibody at 10 ug/ml
[15] = target: M2 truncated peptide NM14 (influenza A virus); assay: peptide ELISA, antibody at 10 ug/ml
[16] = target: M2 truncated peptide NM16 (influenza A virus); assay: peptide ELISA, antibody at 10 ug/ml
[17] = target: M2 truncated peptide NM17 (influenza A virus); assay: peptide ELISA, antibody at 10 ug/ml
[18] = target: M2 truncated peptide NM7 (influenza A virus); assay: peptide ELISA, antibody at 10 ug/ml
[19] = target: M2 truncated peptide NM8 (influenza A virus); assay: peptide ELISA, antibody at 10 ug/ml
[20] = target: M2 truncated peptide NN15 (influenza A virus); assay: peptide ELISA, antibody at 10 ug/ml
[21] = target: M2 truncated peptide NN9 (influenza A virus); assay: peptide ELISA, antibody at 10 ug/ml
[22] = target: M2 protein expressed on A/HK/1/68 infected MDCK cells (influenza A virus A/HK/1/68); assay: cell-based ELISA, half-saturating antibody concentration; conditions: remark: other sources report otherwise

B1: human anti-M2 monoclonal antibody L66 (antibody)
chain 1: EVQLVESGGGVVRPGGSLRLSCAASGFTFDDYGMSWVRQAPGKGLEWVSGINWNGGSTGYADSVKGRFTISRDNAKNSLYLQMNSLRAEDTALYYCARDRVTMVRGVIMDYYGMDVWGQGTTVTVSS
chain 2: QTVVTQEPSLTVSPRGTVTLTCSSSTGAVTSGYYPGWFQLKPGQAPMSLIYSARKKHSWTPARFSGSLLGGKAALTLSGVQPEDEAEYYCLLYYGGAYVFGTGTKVTVLG
B1 gave an ELISA (OD450) [1] of 1.04 OD450, an ELISA (OD450) [2] of 0.16 OD450 and an ELISA (OD450) [3] of 0.15 OD450. It also gave an ELISA (OD450) [4] of 0.13 OD450, an ELISA (OD450) [5] of 0.13 OD450 and an ELISA (OD450) [6] of 0.13 OD450. For the same binder, the ELISA (OD450) [7] was 0.14 OD450, the ELISA (OD450) [8] was 0.19 OD450 and the ELISA (OD450) [9] was 0.2 OD450. It also gave an ELISA (OD450) [10] of 0.27 OD450, an ELISA (OD450) [11] of 0.16 OD450 and an ELISA (OD450) [12] of 0.17 OD450. It also gave an ELISA (OD450) [13] of 0.12 OD450, an ELISA (OD450) [14] of 0.17 OD450 and an ELISA (OD450) [15] of 0.16 OD450. For the same binder, the ELISA (OD450) [16] was 2.52 OD450, the ELISA (OD450) [17] was 1.92 OD450 and the ELISA (OD450) [18] was 0.18 OD450. The ELISA (OD450) [19] was 0.18 OD450, the ELISA (OD450) [20] was 0.28 OD450 and the ELISA (OD450) [21] was 0.16 OD450. The Kd [22] was 0.531 nM.

B2: human anti-M2 monoclonal antibody C40G1 (antibody)
chain 1: QLQLQESGPGLVKPSETLSLTCTVSGGSISSSFYYCGWIRQPPGKGLEWIGSIYYRGSTYYNPSLKSRVTISVDTSKNQFSLKLSSVTAADTAVYYCARRVTMVRGVKGDYFDYWGQGTLVTVSS
chain 2: DIQMTQSPSSLSASVGDRVTITCRASQGISSWLAWYQQKPEKVPKSLIYAASSLQSGVPSRFSGSGSGTDFTLTISSLQPEDFATYYCQQYNYYPLTFGGGTKVEIKR
Binder B2 has an ELISA (OD450) [1] of 2.38 OD450, an ELISA (OD450) [2] of 0.11 OD450 and an ELISA (OD450) [3] of 0.11 OD450. For the same binder, the ELISA (OD450) [4] was 0.1 OD450, the ELISA (OD450) [5] was 0.1 OD450 and the ELISA (OD450) [6] was 1.41 OD450. The ELISA (OD450) [7] was 3.01 OD450, the ELISA (OD450) [8] was 1.95 OD450 and the ELISA (OD450) [9] was 1.93 OD450. For the same binder, the ELISA (OD450) [10] was 1.75 OD450, the ELISA (OD450) [11] was 0.11 OD450 and the ELISA (OD450) [12] was 0.15 OD450. It also gave an ELISA (OD450) [13] of 0.16 OD450, an ELISA (OD450) [14] of 1.82 OD450 and an ELISA (OD450) [15] of 1.93 OD450. For the same binder, the ELISA (OD450) [16] was 2.17 OD450, the ELISA (OD450) [17] was 2.18 OD450 and the ELISA (OD450) [18] was 0.09 OD450. For the same binder, the ELISA (OD450) [19] was 0.1 OD450, the ELISA (OD450) [20] was 2.67 OD450 and the ELISA (OD450) [21] was 0.13 OD450. The Kd [22] was 0.542 nM.
